The record followed here is patent publication US20090117124A1 (Pfizer, published 2009).

For assay [1], the target named is T1, cynomolgus monkey IgE (in cynomolgus serum, Harlan Sera-Lab Ltd) (cynomolgus monkey).
T1 construct: Serum was the source of IgE; eight serum samples; also called cynomolgus IgE; Cyno 1 to Cyno 8 serum samples
Description: capture ELISA, Test 1, Cyno 1. The method, then:
(§1) Wells were washed once with 150 μL/well wash buffer (0.05% Tween-20, Sigma, Cat. No. P7949/TBS) then blocked with 150 μL/well 1% BSA (Sigma, Cat. No. A7030) in TBS for 2 hours at room temperature. Wells were washed twice with 150 μL wash buffer. 50 μL human (in-house donors) or cynomolgus serum (Harlan Sera-Lab Ltd, Loughborough) was added from neat to at least 1:16 dilution in 1% BSA/0.05% Tween-20/TBS diluent buffer. […] Wells were incubated for 2 hours at 25° C. before washing (3×150 μL wash buffer). […] Wells were incubated for 1 hour at 25° C. then washed (3×150 μL wash buffer). Streptavidin-HRP (Amersham Bioscience, Cat. No. RPN 1231) diluted 1:1000 in diluent buffer was added to all wells and incubated for 45 minutes at room temperature. Wells were washed (3×150 […] wash buffer). 50 μL OPD (Dako, Cat. No. S2045) was added to all wells and the color allowed to develop for 10 minutes before stopping the reaction with 50 μl 0.6M H₂SO₄ and the absorbance measured at 490 nm.
On the technique in general: ELISA stands for enzyme-linked immunosorbent assay.

Assay [2] has as its target T1, cynomolgus monkey IgE (in cynomolgus …). Description: capture ELISA, Test 1, Cyno 2. The method, then:
as §1

For assay [3] the target is unchanged. Description: capture ELISA, Test 1, Cyno 3. The method, then:
as §1

The target is the same in assay [4]. Description: capture ELISA, Test 1, Cyno 4. The method, then:
as §1

The target is the same in assay [5]. Description: capture ELISA, Test 1, Cyno 5. The method, then:
as §1

For assay [6] the target is unchanged. The assay can be described thus: capture ELISA, Test 1, Cyno 6. The method, then: as §1
Assay [7] shares this target. The assay can be described thus: capture ELISA, Test 1, Cyno 7. The procedure:
as §1

Assay [8] concerns the target T2, free IgE in human serum (healthy volunteers, in-house donors) (human, UniProt P01854-1 1-428).
T2 construct: Kept apart from the bought myeloma IgE because it is native serum IgE of single donors; also called serum IgE
Description: capture ELISA, Test 1, human serum. The procedure: as §1

The target of assay [9] is T2, free IgE in human serum (healthy …). The assay can be described thus: serum free IgE depletion ELISA; DIN 0284. The procedure: (§2) The next day ELISA plates were washed 1× with 300 μL/well wash buffer (0.05% Tween-20, Sigma, Cat. No. P7949/TBS) then blocked with 150 μL/well 1% BSA (Sigma, Cat. No. A7030) in TBS for 1 hour at room temperature.
For assay [10] the target is unchanged. Description: serum free IgE depletion ELISA; DIN 0382. The method, then: as §2
For assay [11] the target is unchanged. The assay can be described thus: serum free IgE depletion ELISA; DIN 0748. The method, then:
as §2

Assay [12] has the same target. Description: serum free IgE depletion ELISA; DIN 0011 experiment 1. The method, then:
as §2

Assay [13] has the same target. The assay can be described thus: serum free IgE depletion ELISA; DIN 0321 experiment 1. The method, then: as §2
Assay [14] shares this target. Description: serum free IgE depletion ELISA; DIN 0451 experiment 1. The procedure:
as §2

For assay [15] the target is unchanged. The assay can be described thus: serum free IgE depletion ELISA; DIN 0623 experiment 1. The procedure:
as §2

Assay [16] shares this target. Description: serum free IgE depletion ELISA; DIN 0632 experiment 1. The method, then: as §2

T2 sequence (P01854 other isoform, or with tags, fused parts or gaps): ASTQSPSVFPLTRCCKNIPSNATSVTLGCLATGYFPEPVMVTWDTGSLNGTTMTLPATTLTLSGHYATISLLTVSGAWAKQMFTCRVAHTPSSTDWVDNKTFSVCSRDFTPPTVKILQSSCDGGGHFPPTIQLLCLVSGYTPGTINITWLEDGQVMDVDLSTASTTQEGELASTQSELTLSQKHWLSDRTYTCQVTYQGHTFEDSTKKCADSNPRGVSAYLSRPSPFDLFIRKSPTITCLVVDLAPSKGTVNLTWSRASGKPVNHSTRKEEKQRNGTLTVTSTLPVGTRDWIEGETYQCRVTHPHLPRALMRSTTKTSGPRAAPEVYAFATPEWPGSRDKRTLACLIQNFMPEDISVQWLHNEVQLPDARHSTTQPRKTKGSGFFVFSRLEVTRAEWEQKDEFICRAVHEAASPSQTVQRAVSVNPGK

B1: 5.948.1 (recombinant) (antibody, human IgG2, kappa, V domains shown)
VH: QVQLVQSGAEVKKPGASVKVSCKASGYTFTSYDINWVRQATGQGLEWMGWMDPNSGNTGYAQKFQGRVTMTRNTSISTAYMELSSLRSEDTAVYYCARGHYDSDGYYSFSGMDVWGQGTTVTVSS
VL: not shown
notes: Human IgG2 kappa; leader omitted; Two batches were tested in some assays; also called recombinant 5.948.1; 5.948.1 - Batch 1 (762.8 µg/mL)
Turning to B1, the IgE concentration detected in [1] came to 481 ng/mL; in assay [2] it was 464 ng/mL; in [3], 457 ng/mL; in assay [4], 39 ng/mL; in assay [5], 837 ng/mL; in [6], 53 ng/mL. For the same molecule, the IgE concentration detected turned out to be 8 ng/mL in assay [7] and 468 ng/mL in [8]. Also, the “IC25 ng/mL” value in assay [9] was found to be 2.45 µg/mL; in assay [10], 25 µg/mL; in [11], 25.1 µg/mL; in assay [12], 3.3 µg/mL; in assay [13], 1.34 µg/mL; in [14], 11.6 µg/mL. In addition, the “IC25 ng/mL” value in assay [15] amounted to 0.5 µg/mL; in assay [16], 8.91 µg/mL.
